The results in this text go back to patent publication US20220153839A1 (NBE THERAPEUTICS, published 2022).

B1: XBR1-402 chimeric rabbit/human Fab (Fab, V domains shown)
VH: QEQQKESGGGLFKPTDTLTLTCTASGFDISSYYMSWVRQAPGNGLEWIGAIGISGNAYYASWAKSRSTITRNTNLNTVTLKMTSLTAADTATYFCARDHPTYGMDLWGPGTLVTVSS
VL: SYELTQLPSVSVSLGQTARITCEGNNIGSKAVHWYQQKPGLAPGLLIYDDDERPSGVPDRFSGSNSGDTATLTISGAQAGDEADYYCQVWDSSAYVFGGGTQLTVTG
notes: Chimeric rabbit/human Fab with His tag, expressed in E. coli (pC3C-His); lambda light chain
B2: ERR1-306 chimeric rabbit/human Fab (Fab, V domains shown)
VH: QEQLKESGGGLVQPGGSLKLSCKASGFDLSNYGVSWVRQAPGKGLEWIGYIDPTFDYTYYASWVNGRFSISRENTQNTVSLQINSLTPADTATYFCARWVYGVDDYGDGNWLDLWGQGTLVTISS
VL: QFVLTQSPSVSAALGASAKLTCTLSSAHKTYTIDWYQQQQGEAPRYLMELKSDGSYTKGTGVPDRFSGSSSGADRYLIIPSVQADDEADYYCGTDYSGGYVFGGGTQLTVTG
notes: Chimeric rabbit/human Fab with His tag, expressed in E. coli (pET11a); lambda light chain
B3: ERR1-TOP15 chimeric rabbit/human Fab (Fab, V domains shown)
VH: QEQLVESGGRLVTPGGSLTLTCAASGFSPSSYWMSWVRQAPGKGLEWIGAIYVDSGSAYYASWAKSRFTISKTSSTTVDLKMTSLTTEDTAIYFCARDGWGSDVWGPGTLVTISS
VL: SYELTQLPSVSVSLGQTARITCGGNSIGSKAVHWYQQKPGLAPGLLIYDDDERPSGVPDRFSGSNSGDTATLTISGAQAGDEADYYCQLWDSSAGAYVFGGGTQLTVTG
notes: as for B2
B4: ERR1-324 chimeric rabbit/human Fab (Fab, V domains shown)
VH: QSLEESGGGLVQPGESLTLTCTVSGFSLSRNGMTWVRQAPGKGLEWIGIITSSGDKYYATWAKGRFTISKTSSTTVDLKMTSLTTEDTATYFCARGTVSSDIWGPGTLVTISS
VL: ELVLTQTPSPVSAAVGGTVTINCQASQSVYGNNELAWYQQKPGQPPKLLIYRASILTSGVPSRFKGSGSGTQFTLTISNVQREDAATYYCLGGYVSQSYRAAFGGGTELEIL
notes: Chimeric rabbit/human Fab with His tag, expressed in E. coli (pET11a); kappa light chain
B5: ERR1-TOP40 chimeric rabbit/human Fab (Fab, V domains shown)
VH: QEQLEESGGRLVTPGTPLTLTCTASGFSLSNYYMSWVRQAPGKGLEYIGIISSSGSTYYASWAKGRFTISKTSSTTVDLKITSPTTEDTATYFCARLYVSDSTANLWGPGTLVTVSS
VL: DIVLTQTPSSTSAAVGGTVTIKCQASQSIDSYLAWYQQKPGQPPKLLIYGASNLASGVPSRFSGSRSGTEYILTISGVQREDAATYYCLGGYPNYFHRTAFGGGTKLEIK
notes: as for B4
B6: ERR1-TOP54 chimeric rabbit/human Fab (Fab, V domains shown)
VH: QSLEESGGRLVTPGTPLTLTCTASGFSLSDYYMSWVRQAPGEGLEWIGTIYGGSGNTWYATWAKGRFTISKTSTTVDLKITSPTTEDTATYFCARDFGLSTGGLWGPGTLVTISS
VL: B3 VL with H33N, G95R, Y97F
notes: as for B2

Where a chain is given by its changes, count along the chain named.

In general, Kd refers to the constant that tells how readily two partners part at equilibrium. Low readings indicate a tighter complex, high ones a looser complex. A word on the koff: it is a measure of how fast the partners let go of each other. Lower therefore signals slow dissociation. For orientation: kon means the rate constant with which the complex forms.

T8 sequence (Q01974 34-403): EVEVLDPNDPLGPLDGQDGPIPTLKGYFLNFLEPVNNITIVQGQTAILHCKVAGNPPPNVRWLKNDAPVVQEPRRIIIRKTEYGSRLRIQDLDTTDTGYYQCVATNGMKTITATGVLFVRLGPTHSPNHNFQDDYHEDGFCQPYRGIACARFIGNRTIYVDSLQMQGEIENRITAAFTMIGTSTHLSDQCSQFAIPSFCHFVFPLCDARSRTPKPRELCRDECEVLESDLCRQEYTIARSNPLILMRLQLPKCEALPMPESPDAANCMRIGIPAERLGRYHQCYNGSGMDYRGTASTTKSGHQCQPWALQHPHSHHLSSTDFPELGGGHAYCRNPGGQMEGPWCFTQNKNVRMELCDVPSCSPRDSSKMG
T4 sequence (Q01973 165-391 limits assumed): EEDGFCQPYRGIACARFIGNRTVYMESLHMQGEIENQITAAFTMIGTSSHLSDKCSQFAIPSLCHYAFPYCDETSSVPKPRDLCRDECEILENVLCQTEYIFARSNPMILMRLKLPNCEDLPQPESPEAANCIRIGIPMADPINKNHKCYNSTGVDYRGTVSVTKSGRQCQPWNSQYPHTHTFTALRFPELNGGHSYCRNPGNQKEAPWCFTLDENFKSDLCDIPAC
T7 sequence (Q01974 34-943 limits assumed): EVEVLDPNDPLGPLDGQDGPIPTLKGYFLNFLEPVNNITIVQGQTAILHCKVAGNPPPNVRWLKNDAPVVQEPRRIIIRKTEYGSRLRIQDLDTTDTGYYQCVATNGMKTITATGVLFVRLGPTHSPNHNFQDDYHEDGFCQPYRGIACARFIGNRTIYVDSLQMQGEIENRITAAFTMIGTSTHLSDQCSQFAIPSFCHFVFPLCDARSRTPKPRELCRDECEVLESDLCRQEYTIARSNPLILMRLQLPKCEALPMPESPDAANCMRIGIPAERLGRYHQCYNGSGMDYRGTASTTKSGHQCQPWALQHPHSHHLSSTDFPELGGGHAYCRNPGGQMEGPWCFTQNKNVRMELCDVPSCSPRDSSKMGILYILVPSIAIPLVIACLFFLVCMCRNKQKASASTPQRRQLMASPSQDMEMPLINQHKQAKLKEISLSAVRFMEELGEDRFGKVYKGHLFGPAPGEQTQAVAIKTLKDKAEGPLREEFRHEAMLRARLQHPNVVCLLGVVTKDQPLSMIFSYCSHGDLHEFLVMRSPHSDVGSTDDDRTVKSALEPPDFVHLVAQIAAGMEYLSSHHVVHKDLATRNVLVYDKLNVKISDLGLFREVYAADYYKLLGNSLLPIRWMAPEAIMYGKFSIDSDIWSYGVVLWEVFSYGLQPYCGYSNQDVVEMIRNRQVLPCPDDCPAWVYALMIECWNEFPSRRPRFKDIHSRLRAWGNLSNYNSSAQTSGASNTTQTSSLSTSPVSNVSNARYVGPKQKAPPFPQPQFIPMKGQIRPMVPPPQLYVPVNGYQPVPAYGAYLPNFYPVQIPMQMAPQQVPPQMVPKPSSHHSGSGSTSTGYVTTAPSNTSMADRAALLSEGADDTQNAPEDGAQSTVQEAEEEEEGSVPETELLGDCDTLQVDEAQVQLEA
T5 sequence (Q9Z139 30-406): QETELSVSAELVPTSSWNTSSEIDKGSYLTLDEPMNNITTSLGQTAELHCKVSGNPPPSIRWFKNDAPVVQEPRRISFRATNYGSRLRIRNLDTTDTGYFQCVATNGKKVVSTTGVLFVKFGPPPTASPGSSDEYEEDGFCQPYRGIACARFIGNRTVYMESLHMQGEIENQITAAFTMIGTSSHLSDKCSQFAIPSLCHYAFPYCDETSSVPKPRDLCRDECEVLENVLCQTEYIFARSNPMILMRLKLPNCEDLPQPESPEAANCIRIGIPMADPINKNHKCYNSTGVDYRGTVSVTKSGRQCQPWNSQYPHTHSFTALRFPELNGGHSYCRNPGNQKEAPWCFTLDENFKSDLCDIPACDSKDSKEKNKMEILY

The first assay deals with T1, Ig (human, UniProt Q01973).
T1 construct: Ig domain of the extracellular domain; also called hFc-hROR1-Ig
T1 sequence (Q01973 42-147 limits assumed): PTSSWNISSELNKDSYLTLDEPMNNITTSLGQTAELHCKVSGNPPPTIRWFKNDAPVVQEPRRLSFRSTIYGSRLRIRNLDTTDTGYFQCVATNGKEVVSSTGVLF
The assay is described as follows: ELISA on directly coated hFc fusion proteins of hROR1 domains; anti-His-HRP; A405. The protocol:
(§1) ELISA: For ELISA (FIG. 2), each well of a 96-well Costar 3690 plate (Corning, Corning, N.Y.) was coated with 100 ng anti-human IgG1 Fc in 25 μL coating buffer (0.1 M Na₂CO₃, 0.1 M NaHCO₃, pH 9.6) for 1 h at 37° C. After blocking with 150 μL 3% (w/v) BSA/TBS for 1 h at 37° C., hFc-hROR1 or hFc-mROR1 was captured following incubation at 100 ng/50 μL for 1 h at 37° C. Then 100 ng/50 μL of Fab was applied in each well at 37° C. 2 h later, 50 μL of a 1:1000 dilution of a mouse anti-His tag mAb conjugated to horse radish peroxidase (HRP) (R&D Systems, Minneapolis, Minn.) in 1% (w/v) BSA/TBS was used to detect the Fab. To determine the epitopes (FIG. 4), hFc fusion proteins containing different domains of hROR1 were coated directly, followed by incubation with Fab before detection by mouse anti-His tag mAb conjugated to HRP. Washing with PBS was repeated and colorimetric detection was performed using 2,2′-azino-bis(3-ethylbenzthiazoline)-6-sulfonic acid (Roche) as substrate according to the manufacturer's directions. The absorbance was measured at 405 nm using a SpectraMax M5 microplate reader (Molecular Devices; Sunnyvale, Calif.) and SoftMax Pro software (Molecular Devices).
For the molecule B1, the binding result is given as “no binding”.

As to B2, the binding result is given as “no binding”.

B3: the binding result is reported as “no binding”.

The target of a further assay is T2, Fr.
T2 construct: also called hFc-hROR1-Fr
T2 sequence (chain, as listed by the source limits assumed): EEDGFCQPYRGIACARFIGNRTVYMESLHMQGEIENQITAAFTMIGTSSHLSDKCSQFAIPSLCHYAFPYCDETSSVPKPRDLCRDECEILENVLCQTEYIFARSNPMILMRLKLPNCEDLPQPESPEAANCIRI
The assay is described as above. The protocol:
as §1
Take B4: the binding result is given as “no binding”.

Turning to B5, the binding result is given as “no binding”.

On to B2, for which the binding result is reported as “no binding”.

With B3, the binding result was “no binding”.

As for B6, the binding result is “no binding”.

For the next assay, the target named is T3, Kr (human, UniProt Q01973).
T3 construct: Kringle domain of the extracellular domain; also called hFc-hROR1-Kr
T3 sequence (Q01973 312-391 limits assumed): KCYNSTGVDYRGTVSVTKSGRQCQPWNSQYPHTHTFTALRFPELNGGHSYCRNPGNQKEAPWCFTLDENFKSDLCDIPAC
The description is as above. The protocol: as §1
As for B4, the binding result is “no binding”.

B1: the binding result is recorded as “no binding”.

Consider B5, for which the binding result is recorded as “no binding”.

As to B2, the binding result was “no binding”.

Consider B3, for which the binding result is “no binding”.

Turning to B6, the binding result was “no binding”.

A further assay addresses T4, Fr + Ki (human, UniProt Q01973).
T4 construct: Frizzled and Kringle domains of the extracellular domain; also called hFc-hROR1-Fr-Ki
The assay is described as above. As to the method:
as §1
Take B4: the binding result is “no binding”.

Consider B1, for which the binding result is “no binding”.

On to B5, for which the binding result is given as “no binding”.

Take B2: the binding result was “no binding”.

Consider B3, for which the binding result is listed as “no binding”.

Regarding B6, the binding result is listed as “no binding”.

A further assay has as its target T5, hFc-mROR1 (extracellular domain of mouse ROR1 fused to the Fc domain of human IgG1) (human; mouse, UniProt Q9Z139 30-406).
T5 construct: extracellular domain; not shown: Fc domain of human IgG1
The assay is described as follows: ELISA; hFc fusion captured by coated anti-human IgG1 Fc; anti-His-HRP; A405. The protocol:
(§2) The binding of each chimeric rabbit/human Fab to hROR1 and mROR1 fused with human IgG1 Fc (hFc-hROR1 and hFc-mROR1) was analyzed by ELISA. hFc-ROR1 or hFc-mROR1 were captured by anti-human IgG1 Fc antibody immobilized on plate and then incubated with hROR1 specific Fabs comprising a His-tag via detection with mouse anti-His tag.
as §1
(In an ELISA, binding on a coated surface is turned into a signal by an enzyme label.)
As to B1, the binding result is “no binding (tested: 100 ng/50 µL)”.

In the case of B3, the binding result is listed as “no binding (tested: 100 ng/50 µL)”.

Take B6: the binding result is “no binding (tested: 100 ng/50 µL)”.

For another assay, the target named is T6, hFc-hROR1 (extracellular domain of human ROR1 fused to the Fc domain of human IgG1) (human, UniProt Q01973 30-406).
T6 construct: extracellular domain; also called hFc-ROR1; not shown: Fc domain of human IgG1
T6 sequence (Q01973 30-406): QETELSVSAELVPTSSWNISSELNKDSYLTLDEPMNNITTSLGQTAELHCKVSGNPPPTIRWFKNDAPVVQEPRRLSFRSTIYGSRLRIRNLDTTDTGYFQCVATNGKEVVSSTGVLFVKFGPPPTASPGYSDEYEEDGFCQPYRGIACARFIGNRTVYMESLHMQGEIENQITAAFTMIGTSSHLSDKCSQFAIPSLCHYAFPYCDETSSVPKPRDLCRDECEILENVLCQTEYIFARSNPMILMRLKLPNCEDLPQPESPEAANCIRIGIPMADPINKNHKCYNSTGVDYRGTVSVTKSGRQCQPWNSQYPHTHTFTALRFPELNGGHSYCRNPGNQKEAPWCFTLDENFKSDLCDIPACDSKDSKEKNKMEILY
In words: SPR (Biacore X100); hFc-hROR1 captured by anti-human Fcγ antibody on CM5; Fab as analyte; 1:1 Langmuir fit. The protocol: (A) Shown are Biacore X100 sensorgrams obtained for the binding of each Fab to hFc-hROR1 captured by anti-human Fcγ antibody immobilized on CM5 chip after instantaneous background depletion. Fabs were injected at five different concentrations with the highest concentration indicated in table (B), one of the five concentrations was tested in duplicates. The equilibrium dissociation constant (Kd) was calculated from koff/kₒₙ (kₒₙ, association rate constant; koff, dissociation rate constant).
Surface plasmon resonance: Surface plasmon resonance for the measurement of the affinities of all Fabs to hFc-hROR1 and for epitope mapping studies were performed on a Biacore X100 instrument using Biacore reagents and software (GE Healthcare, Piscataway, N.J.). Anti-Human IgG (Fc) antibody was immobilized on a CM5 sensor chip following the instruction of Human Antibody Capture Kit (GE Healthcare, Piscataway, N.J.). The sensor chip included an empty flow cell for instantaneous background depletion. All binding assays used 1×HBS-EP+ running buffer (10 mM HEPES, 150 mM NaCl, 3 mM EDTA (pH 7.4), and 0.05% (v/v) Surfactant P20) and a flow rate of […]. […] The sensor chip was regenerated with […] from the Human Antibody Capture Kit without any loss of binding capacity. Calculation of association (kₒₙ) and dissociation (koff) rate constants was based on a 1:1 Langmuir binding model. The equilibrium dissociation constant (Kd) was calculated from koff/kₒₙ. For epitope mapping studies, each Fab was prepared at 500 nM alone in 1×HBS-EP+ running buffer and then injected in order as indicated in FIG. 5.
On the technique in general: In SPR one partner is held on a chip, and binding of the other changes the refractive index at the surface.
B1 registered a Kd of 5.81 nM, an off-rate constant (koff) of 0.00643 s⁻¹ and an on-rate (kon) of 1.11e+06 M⁻¹ s⁻¹.

Take B3: the dissociation constant (Kd) is 139 nM, the off-rate (koff) was determined as 0.0654 s⁻¹ and the kon worked out at 469000 M⁻¹ s⁻¹.

As for B6, the Kd stood at 145 nM, the koff stood at 0.0688 s⁻¹ and the on-rate (kon) worked out at 475000 M⁻¹ s⁻¹.

A further assay addresses T7, hROR2 (human, UniProt Q01974).
T7 construct: full length, on the cell surface; also called 63-12 / hROR2; ROR2 on T47D cells
In words: flow cytometry on 63-12 / hROR2 cells; anti-His Alexa Fluor 488. The protocol: Flow cytometry: Cells were stained using standard flow cytometry methodology. Briefly, for purified anti-ROR1 Fab (FIG. 3), 0.1-1×10⁶ cells were stained with 1000 ng/100 μL of Fab on ice for 1 h. After washing twice with ice-cold flow cytometry buffer (PBS containing 1% (v/v) BSA, 0.1% sodium azide and 1 mM EDTA), the cells were incubated with a 1:1000 dilution of a mouse anti-His tag mAb conjugated to Alexa Fluor 488 (Qiagen) in 100 μL flow cytometry buffer on ice for 30 min. For purified anti-ROR1 IgG1 (FIG. 8), 0.1-1×10⁶ cells were blocked by 4% goat serum for 15 min at room temperature and then incubated with 100 ng/100 μL of IgG on ice for 1 h. After washing twice with ice-cold flow cytometry buffer, cells were stained with a 1:500 dilution of goat anti-human IgG, Fcγ pAbs conjugated to APC (Jackson ImmunoResearch) in 100 μL flow cytometry buffer on ice for 30 min. For commercial goat anti human ROR1 polyclonal antibody (FIG. 8), 0.1-1×10⁶ cells were stained with 200 ng/100 μL of Ab on ice for 1 h. […] Finally, 4′,6-diamidino-2-phenylindole (DAPI) was added to a final concentration of 100 ng/mL to exclude dead cells from the analysis. Cells were analyzed using a FACSCalibur instrument (BD Biosciences) and FlowJo analytical software (Tree Star, Ashland, Oreg.).
B1: the binding result was “no binding (tested: 1000 ng/100 µL)”.

Consider B2, for which the binding result is on record as “no binding (tested: 1000 ng/100 µL)”.

Regarding B3, the binding result is listed as “no binding (tested: 1000 ng/100 µL)”.

As to B6, the binding result is “no binding (tested: 1000 ng/100 µL)”.

A further assay addresses T8, hFc-hROR2 (extracellular domain of human ROR2 fused to the Fc domain of human IgG1) (human, UniProt Q01974 34-403).
T8 construct: extracellular domain; not shown: Fc domain of human IgG1
In words: ELISA as for hFc-hROR1; third bar series, keyed 'hFc-hROR1' a second time on the sheet, taken as hFc-hROR2 by legend paragraph 27. As to the method: as §2, §1
For the molecule B4, the binding result is reported as “no binding (tested: 100 ng/50 µL)”.

As to B1, the binding result was “no binding (tested: 100 ng/50 µL)”.

For B5, the binding result is “no binding (tested: 100 ng/50 µL)”.

Consider B2, for which the binding result is given as “no binding (tested: 100 ng/50 µL)”.

For B3, the binding result is given as “no binding (tested: 100 ng/50 µL)”.

For B6, the binding result is “no binding (tested: 100 ng/50 µL)”.
